Results taken from US9284541B2, “Methods and compositions for protein labeling using lipoic acid ligases” (Massachusetts Institute of Technology, priority 2007, dated 2016).

Substrate: [N-]=[N+]=NCCCCCCCC(=O)O
Assay: Measurement of LplA-probe ligation kinetics (HPLC)
Assay type: biochemical, E. coli
Conditions: other: ligation to E2p, 200 nM LplA; pH 7.0; 30.0 °C
Experimental: To measure the kcat for LplA ligation of lipoic acid to E2p, 50 nM LplA was combined with 200 μM E2p, 750 μM lipoic acid, […], and 2 mM magnesium acetate in 25 mM sodium phosphate pH 7.0. The reaction was initiated with addition of 1 mM ATP to the pre-warmed (30° C.) mixture. The reaction was incubated at 30° C., and 90 μL aliquots were removed every 5 minutes and quenched with 50 mM EDTA (final concentration). Samples were analyzed by C18 reverse-phase HPLC as described in the “Methods” section. Measurements were performed in triplicate. A calibration curve was obtained that correlated the ratio of integrated HPLC peak areas (E2p:E2p-probe) to the actual protein ratio, in order to compensate for differences in the extinction coefficients of E2p and lipoylated E2p. The amount of product obtained at each time point was plotted against time, to obtain the Vmax of the reaction. From this, the kcat value was obtained using the equation Vmax=kcat [E]total.
90 μL aliquots were removed from the 30° C. reactions at 5 minutes intervals, up to 30 minutes, and quenched with 50 mM EDTA (final concentration). Samples were analyzed by HPLC as above. The amount of product obtained at each time point was plotted against time, to obtain the initial velocity for each concentration of azide 7. […] From the Vmax value, kcat was calculated using the equation Vmax=kcat [E]total.

B1: E. coli LplA (Escherichia coli K-12) (protein)
chain: STLRLLISDSYDPWFNLAVEECIFRQMPATQRVLFLWRNADTVVIGRAQNPWKECNTRRMEEDNVRLARRSSGGGAVFHDLGNTCFTFMAGKPEYDKTISTSIVLNALNALGVSAEASGRNDLVVKTVEGDRKVSGSAYRETKDRGFHHGTLLLNADLSRLANYLNPDKKKLAAKGITSVRSRVTNLTELLPGITHEQVCEAITEAFFAHYGERVEAEIISPNKTPDLPNFAETFARQSSWEWNFGQAPAFSHLLDERFTWGGVELHFDVEKGHITRAQVFTDSLNPAPLEALAGRLQGCLYRADMLQQECEALLVDFPEQEKELRELSAWMAGAVR
Km: 127 ± 11 µM
